Target: Vibrio cholerae major pilin TcpA with a His181Ala substitution, assembled in purified TCP^H181A pili (V. cholerae)

B1: Vibrio cholerae minor pilin TcpB (natural protein)
chain: MRKYQQGVGLLEAILASAVLGMALVAAGSYYKREAELMIKSSNAFDVIELSSQIQRYASLSKINNRTNPILKDNKAKEFKDADLKWLKLENCLTAGDVPTTGNNNDLQDQFIACDADYRKGDLSYFGSQFEFSTYVHPSNPEIQRQIKQVVSYFQYRGMERAFIGDAAGYVISEAKKKGFSAQDYRIVLIEPDRVGYFESNVISYEEFIENPSARENFLLKATKDRTLALAVSLAQTGEIAMQRDGSVAFLEDTELCWDTAAGSAKSCLSVRYDTVGNKTELDLKQIDVVSAKGLSFESDGKTKTPVVSTYETFQDGGRAKTINAIECPTGLNNRFAAVVSSFSTAGQNANFSSESAKDSQGTTQKDGSKGPHALLSGISLNWTLTNKVWDVTASIGIESGILPTSGIDSGSLLRNPKSLSFIAFQWCEN
B1 was tested, and the molar ratio TcpA:TcpB in purified pili (TcpA per TcpB) was 7000.

From paper PMC5207764
